Experimental data from patent EP4722248A1 (Shionogi & Co., Ltd, dated 2026).

B1: B6-mCD3 (bispecific antibody)
chain: EVQLVESDGGLVQPGRSLKLSCAASGFTFSDYYMAWVRQAPTKGLEWVATITYDVYSTYYRDSVKGRFTISRDNAKSTLYLQMDSLRSEDTATYYCARHGGDGYNSGNWFAYWGQGTLVTVSSGGGGSGGGGSGGGGSDIVLTQSPALAVSLGQRATISCRASQSVSISRYNIMHWYQQKPGQQPKLLIYRASNLASGIPARFSGSGSGTDFTLTINPVQADDIATYYCQQSRESPPTFGGGTKLELKRAANASEVQLVESGGGLVQPGKSLKLSCEASGFTFSGYGMHWVRQAPGRGLESVAYITSSSINIKYADAVKGRFTVSRDNAKNLLFLQMNILKSEDTAMYYCARFDWDKNYWGQGTMVTVSSGGGGSGGGGSGGGGSDIQMTQSPSSLPASLGDRVTINCQASQDISNYLNWYQQKPGKAPKLLIYYTNKLADGVPSRFSGSGSGRDSSFTISSLESEDIGSYYCQQYYNYPWTFGPGTKLEIKHHHHHH
B2: B6-CD3-3 (bispecific antibody)
chain: EVQLVESDGGLVQPGRSLKLSCAASGFTFSDYYMAWVRQAPTKGLEWVATITYDVYSTYYRDSVKGRFTISRDNAKSTLYLQMDSLRSEDTATYYCARHGGDGYNSGNWFAYWGQGTLVTVSSGGGGSGGGGSGGGGSDIVLTQSPALAVSLGQRATISCRASQSVSISRYNIMHWYQQKPGQQPKLLIYRASNLASGIPARFSGSGSGTDFTLTINPVQADDIATYYCQQSRESPPTFGGGTKLELKRAANASEVQLVESGGGLVQPGGSLRLSCAASGFTFSTYAMNWVRQAPGKGLEWVGRIRSKYNNYATYYADSVKGRFTISRDDSKNTLYLQMNSLRAEDTAVYYCVRHGNFGDSYVSWFAYWGQGTLVTVSSGKPGSGKPGSGKPGSGKPGSQAVVTQEPSLTVSPGGTVTLTCGSSTGAVTTSNYANWVQQKPGKSPRGLIGGTNKRAPGVPARFSGSLLGGKAALTISGAQPEDEADYYCALWYSNHWVFGGGTKLTVLHHHHHH

How the values were obtained:
human CCR8 [1] = biological target: T1, human CCR8 (human, UniProt P51685 1-355); assay: cell-based or functional assay
T1 sequence (P51685 whole entry): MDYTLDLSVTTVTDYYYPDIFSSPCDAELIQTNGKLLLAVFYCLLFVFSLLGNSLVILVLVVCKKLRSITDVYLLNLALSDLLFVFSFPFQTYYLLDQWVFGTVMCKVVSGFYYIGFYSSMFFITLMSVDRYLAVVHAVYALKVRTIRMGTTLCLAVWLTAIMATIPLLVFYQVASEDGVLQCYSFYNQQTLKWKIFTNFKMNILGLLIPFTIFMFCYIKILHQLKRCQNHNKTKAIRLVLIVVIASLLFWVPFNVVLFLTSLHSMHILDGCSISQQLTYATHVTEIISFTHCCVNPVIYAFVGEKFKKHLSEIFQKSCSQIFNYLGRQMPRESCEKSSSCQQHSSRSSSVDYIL

human CCR8 [2] = biological target: T1, human CCR8; assay: cell-based or functional assay; remark: listed apart in the source

Binder	EC50 of cytotoxic activity, luciferase; hCCR8/Fluc/Rat-1 target cells, mouse spleen-derived CD8-positive T cell effectors, antibody 10 pM-10 nM (human CCR8 [1])	EC50 of killing rate; hCCR8/FLuc/Rat-1 target cells, activated PBMC effectors, E/T 3:1 (human CCR8 [2])
B1	62.3 pM	–
B2	–	1.62 pM
